In EP4782465A1 (Shanghai Mabgen Biotech Ltd., dated 2026):

Target: Insulin receptor of C2C12 mouse myoblasts (mouse, UniProt P15208 28-1372)
Experiment: cell-based or functional assay

Sequence of Insulin receptor of C2C12 mouse myoblasts (P15208 28-1372): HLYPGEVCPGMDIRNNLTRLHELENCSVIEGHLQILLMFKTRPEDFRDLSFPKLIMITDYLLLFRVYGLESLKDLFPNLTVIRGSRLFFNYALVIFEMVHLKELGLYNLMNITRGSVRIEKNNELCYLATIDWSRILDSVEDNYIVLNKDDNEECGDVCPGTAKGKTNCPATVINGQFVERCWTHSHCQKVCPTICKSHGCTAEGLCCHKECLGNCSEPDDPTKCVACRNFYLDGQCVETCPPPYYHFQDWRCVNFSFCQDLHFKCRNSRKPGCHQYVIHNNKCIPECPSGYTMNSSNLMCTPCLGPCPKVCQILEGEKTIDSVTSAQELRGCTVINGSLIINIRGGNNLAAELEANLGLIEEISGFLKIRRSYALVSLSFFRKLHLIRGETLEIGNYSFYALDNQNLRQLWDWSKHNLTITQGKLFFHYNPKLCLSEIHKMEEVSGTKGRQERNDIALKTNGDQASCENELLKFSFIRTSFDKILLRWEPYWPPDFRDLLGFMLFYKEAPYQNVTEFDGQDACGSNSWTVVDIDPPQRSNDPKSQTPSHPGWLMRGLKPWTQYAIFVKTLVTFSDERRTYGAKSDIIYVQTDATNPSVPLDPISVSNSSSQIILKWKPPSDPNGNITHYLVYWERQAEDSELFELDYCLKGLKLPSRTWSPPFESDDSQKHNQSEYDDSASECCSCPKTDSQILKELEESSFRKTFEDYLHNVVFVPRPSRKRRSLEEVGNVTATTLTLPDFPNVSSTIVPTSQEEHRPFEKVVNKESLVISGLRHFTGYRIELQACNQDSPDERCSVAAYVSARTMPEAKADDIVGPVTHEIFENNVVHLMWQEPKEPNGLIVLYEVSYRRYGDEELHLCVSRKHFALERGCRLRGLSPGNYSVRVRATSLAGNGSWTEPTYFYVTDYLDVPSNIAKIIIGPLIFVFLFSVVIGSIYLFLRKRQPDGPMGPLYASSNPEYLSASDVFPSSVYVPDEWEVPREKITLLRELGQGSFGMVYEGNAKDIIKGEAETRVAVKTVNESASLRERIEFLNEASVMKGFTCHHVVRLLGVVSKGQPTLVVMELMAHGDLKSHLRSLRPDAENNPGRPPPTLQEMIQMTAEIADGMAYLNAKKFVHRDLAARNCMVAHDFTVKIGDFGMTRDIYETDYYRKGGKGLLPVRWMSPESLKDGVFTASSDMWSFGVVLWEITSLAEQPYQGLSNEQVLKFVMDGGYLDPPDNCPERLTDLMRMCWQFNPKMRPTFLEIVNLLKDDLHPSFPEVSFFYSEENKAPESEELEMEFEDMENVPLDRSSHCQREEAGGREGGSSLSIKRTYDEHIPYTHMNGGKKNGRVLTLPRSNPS

- AKT phosphorylation activity (EC50): 490 nM
B1: Fusion protein 1 (insulin analog 1 + L2 + IgG2 Fc1) (Fc fusion)
chain: FVNQHLCGEHLVEALYLVCGERGFHYGGGGGGSGGGGGIVEQCCESICSLEQLENYCGGGGGQGGGGQGGGGQGGGGGECPPCPAPPVAGPSVFLFPPKPKDTLMISRTPEVTCVVVDVSHEDPEVQFNWYVDGVEVHNAKTKPREEQFNSTFRVVSVLTVVHQDWLNGKEYKCKVSNKGLPAPIEKTISKTKGQPREPQVYTLPPSREEMTKNQVSLTCLVKGFYPSDIAVEWESNGQPENNYKTTPPMLDSDGSFFLYSKLTVDKSRWQQGNVFSCSVMHEALHNHYTQKSLSLSPG
